Test results as given in US20140179896A1 (published 2014).
Positions count from the first letter of the chain named.

B1: E22 (designed binder)
chain: EVVAATPTSLLISWRHPHFPTRYYRITYGETGGNSPVQEFTVPLQPPTATISGLKPGVDYTITGYAVTLGRNDRELLTPISINYRT
notes: 10Fn3 clone, Del 1-8
B2: F11 (designed binder)
chain: B1 chain with L69V, G70E, R71Q, D73G, E75V, L77N
notes: 10Fn3 clone, Del 1-8
B3: F9 (designed binder)
chain: B1 chain with L69V, G70E, R71P, D73G, E75V, L77N
notes: 10Fn3 clone, Del 1-8
B4: EGE11 (SEQ ID NO 72) (designed binder)
chain: B1 chain with L69F, R71W, T78I
B5: F8 (designed binder)
chain: B1 chain with L69V, G70E, R71H, D73G, E75T, L76S, L77F
notes: 10Fn3 clone, Del 1-8
B6: EGE3 (designed binder)
chain: B1 chain with L69V, G70E, D73G, E75Q, L77Y
notes: 10Fn3 clone, Del 1-8
B7: F6 (designed binder)
chain: B1 chain with L69V, G70E, R71Q, D73G, E75V, L77M
notes: 10Fn3 clone, Del 1-8
B8: EGE11 (SEQ ID NO 87) (designed binder)
chain: B1 chain with L69M, R71K
B9: F10 (designed binder)
chain: B1 chain with L69M, G70A, R71P, D73G
notes: 10Fn3 clone, Del 1-8
B10: F3 (designed binder)
chain: B1 chain with L69V, G70E, N72D, D73G, E75K, L77Y
notes: 10Fn3 clone, Del 1-8
B11: EGE5 (designed binder)
chain: B1 chain with G70E, D73G, E75V, L77N
notes: 10Fn3 clone, Del 1-8
B12: G4 (designed binder)
chain: B1 chain with L69I, G70E, R71K, D73G, E75H, L77N, T78I
notes: 10Fn3 clone, Del 1-8
B13: F4 (designed binder)
chain: B1 chain with L69V, G70E, N72D, D73G, E75T, L77R
notes: 10Fn3 clone, Del 1-8
B14: E27 (designed binder)
chain: B1 chain with L69V, G70E, D73G, R74H, E75T, L77M
notes: 10Fn3 clone, Del 1-8
B15: EGE2 (designed binder)
chain: B1 chain with L69V, G70E, D73G, E75Q, L77M
notes: 10Fn3 clone, Del 1-8
B16: EGE7 (designed binder)
chain: B1 chain with G70E, E75V
notes: 10Fn3 clone, Del 1-8
B17: EGE4 (designed binder)
chain: B1 chain with L69V, G70E, D73G, E75V, L77N
notes: 10Fn3 clone, Del 1-8
B18: G2 (designed binder)
chain: B1 chain with G70E, D73N
notes: 10Fn3 clone, Del 1-8
B19: F1 (designed binder)
chain: B1 chain with L69S, T78V
notes: 10Fn3 clone, Del 1-8
B20: G3 (designed binder)
chain: B1 chain with L69M, G70E, N72S, D73G, L77M
notes: 10Fn3 clone, Del 1-8
B21: EGE10 (designed binder)
chain: B1 chain with L69M, R71P
notes: 10Fn3 clone, Del 1-8
B22: EGE8 (designed binder)
chain: B1 chain with L69V, G70E, D73E, E75V, L77M
notes: 10Fn3 clone, Del 1-8
B23: EGE1 (designed binder)
chain: B1 chain with G70E, D73G, E75K, L77M
notes: 10Fn3 clone, Del 1-8
B24: EGE9 (designed binder)
chain: B1 chain with L69F, R71P
notes: 10Fn3 clone, Del 1-8
B25: F7 (designed binder)
chain: B1 chain with L69V, G70E, R71H, D73G, E75V, L77N, T78I
notes: 10Fn3 clone, Del 1-8
B26: EGE6 (designed binder)
chain: B1 chain with G70E, D73G, E75L, L77N
notes: 10Fn3 clone, Del 1-8
B27: FE (designed binder)
chain: B1 chain with L69V, G70E, N72D, D73G, L77N, T78I
B28: E24 (designed binder)
chain: B1 chain with L69V, G70E, E75V, L77F
notes: 10Fn3 clone, Del 1-8
B29: E23 (designed binder)
chain: EVVAATPTSLLISWRHHPHFPTRYYRITYGETGGNSPVQEFTVPLQPPTATISGLKPGVDYTITGYAVTVHWNGRELMTPISINYRT
notes: 10Fn3 clone, Del 1-8
B30: 2C6 PR3 (designed binder)
chain: VSDVPRDLEVVAATPTSLLISWRHPHFPTRYYRITYGETGGNSPVQEFTVPLQPPTATISGLKPGVDYTITGYAVTVEPNGHKLAIPISINYRT
notes: tag left out
B31: 2G12 PR3 (designed binder)
chain: B30 chain with V77S, E78G, P79Q, G81D, K83A, A85L
notes: tag left out
B32: 2H12 PR3 (designed binder)
chain: B30 chain with V77E, E78G, P79Y, N80Q, G81N, K83E, A85S, I86V
notes: tag left out
B33: 2C9 PR3 (designed binder)
chain: B30 chain with V77E, E78A, H82R, K83E, A85R, I86T
notes: tag left out
B34: 2H10 PR3 (designed binder)
chain: B30 chain with V77L, E78A, N80S, G81A, H82R, K83E, A85M, I86T
notes: tag left out
B35: 2D12 PR3 (designed binder)
chain: B30 chain with V77E, E78G, P79W, N80I, G81D, K83E, L84I, A85M
notes: tag left out
B36: 2′A1-PR4 (designed binder)
chain: B30 chain with V77S, E78G, P79H, G81D, K83M, A85M
notes: tag left out
B37: 2F3 PR3 (designed binder)
chain: B30 chain with V77L, E78S, P79H, N80Y, H82K, K83E, A85R, I86T
notes: tag left out
B38: 2C12 PR3 (designed binder)
chain: B30 chain with V77D, E78A, P79Q, G81V, H82Q, K83A, L84P, A85I, I86A, P87Q
notes: tag left out
B39: 2′B4-PR4 (designed binder)
chain: B30 chain with V77S, E78G, P79H, K83E, L84V, A85M, I86T
notes: tag left out
B40: 2G9 PR3 (designed binder)
chain: B30 chain with V77E, E78I, P79Y, G81D, K83E, A85M, I86T
notes: tag left out
B41: 2′A11-PR4 (designed binder)
chain: B30 chain with V77E, E78D, P79I, N80R, G81V, H82L, K83W, A85N, I86T, P87T
notes: tag left out
B42: 2F10 PR3 (designed binder)
chain: B30 chain with V77L, E78A, P79L, N80F, G81D, K83E, A85L, I86T
notes: tag left out

Target: T1, mouse vascular endothelial growth factor receptor-2 Fc chimera (Flk-1-Fc) (mouse, UniProt P35918 20-762)
T1 construct: Bought from R&D Systems; also called mouse VEGFR-2; not shown: Fc part of the purchased chimera, not specified
Test: radioactive equilibrium binding assay, 1 nM Flk-1-Fc, % of input bound
Procedure: (§1) To prepare ³⁵S-labeled binding proteins for analysis, mRNA was prepared as described above for RNA-protein fusion production but the linker ligation step was omitted. The mRNA was expressed using rabbit reticulocyte lysate translation kit (Ambion) in the presence of ³⁵S-labeled Met at 30° C. for 1 hour. Expressed protein was purified on M2-agarose Flag beads (Sigma) as described above. This procedure produced the encoded protein without the nucleic acid tail. In a direct binding assay, VEGF-R2-Fc fusions in concentrations ranging from 0 to 200 nM were added to a constant concentration of the purified protein (0.2 or 0.5 nM) and incubated at 30° C. for 1 hour in buffer B. The receptor-binder complexes were captured using Protein A magnetic beads for another 10 minutes at room temperature using a Kingfisher™ The beads were washed with six reaction volumes of buffer B. The protein was eluted from the beads with 100 μL of 0.1 M KOH. […] of the reaction mixture and elution were dried onto a LumaPlate-96 (Packard) and the amount of ³⁵S on the plate was measured using a TopCount NXT instrument (Packard). The amount of fibronectin-based scaffold protein bound to the target was estimated as a percent of radioactivity eluted from Protein A magnetic beads compare to radioactivity in the reaction mixture. Nonspecific binding of fibronectin-based scaffold proteins to the beads was determined by measuring binding in the absence of KDR-Fc and represented less than 1-2% of the input. Specific binding was obtained through subtraction of nonspecific binding from total binding. Data was analyzed using the GraphPad Prizm software (GraphPad Software, Inc, San Diego, Calif.), fitted using a one site, non-linear binding equation.

T1 sequence (P35918 20-762, change not shown): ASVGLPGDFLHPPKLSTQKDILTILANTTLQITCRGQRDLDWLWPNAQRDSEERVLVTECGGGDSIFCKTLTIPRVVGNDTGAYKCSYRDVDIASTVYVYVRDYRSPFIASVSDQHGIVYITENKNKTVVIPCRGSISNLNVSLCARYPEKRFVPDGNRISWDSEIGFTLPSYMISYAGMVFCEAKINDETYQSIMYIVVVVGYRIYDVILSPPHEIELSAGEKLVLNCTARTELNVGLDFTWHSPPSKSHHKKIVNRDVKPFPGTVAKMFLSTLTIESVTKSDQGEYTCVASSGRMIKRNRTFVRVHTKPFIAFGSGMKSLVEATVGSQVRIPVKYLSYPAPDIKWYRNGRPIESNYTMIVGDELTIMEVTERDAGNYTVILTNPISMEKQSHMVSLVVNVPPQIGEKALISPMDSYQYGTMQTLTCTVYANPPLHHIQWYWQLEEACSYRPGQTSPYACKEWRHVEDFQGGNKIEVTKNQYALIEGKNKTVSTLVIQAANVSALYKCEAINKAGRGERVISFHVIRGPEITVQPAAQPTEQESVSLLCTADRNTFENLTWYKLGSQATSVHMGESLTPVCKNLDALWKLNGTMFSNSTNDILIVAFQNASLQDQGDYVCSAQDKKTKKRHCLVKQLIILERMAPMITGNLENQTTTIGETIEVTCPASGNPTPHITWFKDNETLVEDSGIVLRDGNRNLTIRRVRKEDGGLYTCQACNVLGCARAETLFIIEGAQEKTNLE

Binding to 1 nM Flk-1, % [%] | Binder
3 | B1
8 | B2
23 | B3
0 | B4
13 | B5
38 | B6
2 | B7
1 | B8
1 | B9
15 | B10
47 | B11
12 | B12
18 | B13
9 | B14
33 | B15
30 | B16
41 | B17
9 | B18
2 | B19
10 | B20
1 | B21
20 | B22
29 | B23
1 | B24
7 | B25
40 | B26
8 | B27
29 | B28
7 | B29

Target: T2, human vascular endothelial growth factor receptor-2 Fc chimera (KDR-Fc) (human, UniProt P35968 20-764)
T2 construct: range 1-764; also called human VEGFR-2; not shown: human IgG1 Fc
Test: radioactive equilibrium binding assay, 1 nM KDR-Fc, % of input bound
Procedure: as §1
T2 sequence (P35968 20-764 limits assumed, change not shown, form in doubt): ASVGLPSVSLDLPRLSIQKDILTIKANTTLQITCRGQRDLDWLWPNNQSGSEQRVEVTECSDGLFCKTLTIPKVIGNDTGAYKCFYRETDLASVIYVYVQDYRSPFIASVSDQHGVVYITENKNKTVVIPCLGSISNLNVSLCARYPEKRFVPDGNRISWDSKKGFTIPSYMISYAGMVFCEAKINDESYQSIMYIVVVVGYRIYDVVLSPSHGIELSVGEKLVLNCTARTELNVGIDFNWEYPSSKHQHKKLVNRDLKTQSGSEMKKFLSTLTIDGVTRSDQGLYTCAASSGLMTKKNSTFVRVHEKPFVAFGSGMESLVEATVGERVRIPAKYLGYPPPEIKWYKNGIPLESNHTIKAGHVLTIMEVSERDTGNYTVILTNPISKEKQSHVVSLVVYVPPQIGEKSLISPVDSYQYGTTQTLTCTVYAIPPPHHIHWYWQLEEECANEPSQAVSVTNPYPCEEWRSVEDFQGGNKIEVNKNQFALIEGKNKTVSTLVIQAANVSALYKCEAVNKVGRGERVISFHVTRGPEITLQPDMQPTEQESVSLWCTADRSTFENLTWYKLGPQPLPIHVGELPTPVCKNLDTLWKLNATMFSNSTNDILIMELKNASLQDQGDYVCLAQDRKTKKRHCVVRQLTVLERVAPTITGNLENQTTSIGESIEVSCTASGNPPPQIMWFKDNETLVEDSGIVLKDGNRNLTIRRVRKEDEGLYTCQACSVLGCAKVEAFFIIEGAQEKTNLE

Binding to 1 nM KDR, % [%] | Binder
45 | B1
20 | B2
32 | B3
50 | B4
33 | B5
34 | B6
37 | B7
32 | B8
29 | B9
27 | B10
32 | B11
21 | B12
31 | B13
37 | B14
42 | B15
31 | B16
26 | B17
25 | B18
18 | B19
28 | B20
37 | B21
26 | B22
30 | B23
32 | B24
30 | B25
33 | B26
12 | B27
24 | B28
36 | B29

Target: T3, human vascular endothelial growth factor receptor-2 Fc chimera (KDR-Fc) (human, UniProt P35968 20-764)
T3 construct: range 1-764; purchased from R&D Systems; also called hKDR; human VEGF-R2-Fc; not shown: human IgG1 Fc
Test: radioactive equilibrium binding, 1 nM KDR-Fc
How it was run: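 Read-out: eluted ³⁵S as % of input radioactivity, minus bead-only binding without KDR-Fc (under 1-2% of input); one-site non-linear fit. Tracer binder 0.2 or 0.5 nM, receptor-Fc 0–200 nM, 1 h at 30° C in buffer B.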
T3 sequence (P35968 20-764 limits assumed, change not shown, form in doubt): as above

Binding to 1 nM KDR, % [%] | Binder
5 | B30
6 | B31
10 | B32
7 | B33
10 | B34
14 | B35
11 | B36
8 | B37
6 | B38
4 | B39
9 | B40
6 | B41
3 | B42
